In patent US20240327534A1 (HARPOON THERAPEUTICS, published 2024):
Residue numbers refer to the chain shown, from its start. Names and notes keep the numbering of the source.

T1: human BCMA protein (human, UniProt Q02223 1-54, limits assumed)
T1 sequence: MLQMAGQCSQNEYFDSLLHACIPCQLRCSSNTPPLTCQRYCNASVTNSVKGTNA

T2: human BCMA on BCMA expressing cell lines (human, UniProt Q02223 1-184)
T2 sequence: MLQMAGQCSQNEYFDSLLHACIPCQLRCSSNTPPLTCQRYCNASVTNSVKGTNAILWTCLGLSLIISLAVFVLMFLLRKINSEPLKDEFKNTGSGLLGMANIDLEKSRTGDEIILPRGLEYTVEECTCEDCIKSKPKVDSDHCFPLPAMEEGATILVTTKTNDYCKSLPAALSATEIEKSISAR

B1: 01F07-M34G TriTAC (other, not shown: large carriers; small tags and cut ends)
VHH: EVQLVESGGGLVQPGRSLTLSCAASTNIFSTSPGGWYRQAPGKQRELVAAIHGFSTIYADSVKGRFTISRDNAKNSIYLQMNSLRPEDTALYYCNKVPWGDYHPGNVYWGQGTQVTVSS
notes: trispecific; also called 01F01-M34G
B2: 01F07-M34Y TriTAC (other)
VHH: B1 VHH with G34Y
notes: trispecific; not shown: anti-albumin domain, anti-CD3 domain and the linkers of the TriTAC; the C-terminal His6 that follows them is left out
B3: 02G02-M34Y TriTAC (other, not shown: large carriers; small tags and cut ends)
VHH: B1 VHH with T31I, S32T, G34Y, F54A, I57L
notes: trispecific
B4: 02G02-M34G TriTAC (other, not shown: large carriers; small tags and cut ends)
VHH: B1 VHH with T31I, S32T, F54A, I57L
notes: trispecific
B5: BCMA targeting trispecific protein 01F07 (other, not shown: large carriers; small tags and cut ends)
VHH: B1 VHH with G34M
notes: trispecific; also called 01F07 TriTAC
B6: BCMA targeting trispecific protein 01G08 (other, not shown: large carriers; small tags and cut ends)
VHH: B1 VHH with F29Q, T31I, G34M, S55E, I57L
notes: trispecific; also called 01G08 TriTAC
B7: BCMA targeting trispecific protein 02E05 (other)
VHH: B1 VHH with T31R, G34M, F54I, I57L
notes: trispecific; also called 02E05 TriTAC; not shown: the C-terminal 6xHis tag follows those domains and is left out
B8: BCMA targeting trispecific protein 02F04 (other, not shown: large carriers; small tags and cut ends)
VHH: B1 VHH with T31S, G34M, I57L
notes: trispecific; also called 02F04 TriTAC
B9: BCMA targeting trispecific protein 02F02 (other)
VHH: B1 VHH with T31K, G34M, F54S, I57L
notes: trispecific; also called 02F02 TriTAC; not shown: The C-terminal 6xHis tag is left out because it follows these missing domains
B10: BCMA targeting trispecific protein 02B06 (other, not shown: large carriers; small tags and cut ends)
VHH: B1 VHH with T31N, G34M, I57L
notes: trispecific; also called 02B06 TriTAC
B11: BCMA targeting trispecific protein 01H08 (other)
VHH: B1 VHH with F29M, T31I, G34M, I57V
notes: trispecific; also called 01H08 TriTAC; not shown: the C-terminal His6 follows those missing domains and is left out
B12: BCMA targeting trispecific protein 02G02 (other)
VHH: B1 VHH with T31I, S32T, G34M, F54A, I57L
notes: trispecific; also called 02G02 TriTAC; not shown: anti-albumin domain, anti-CD3 domain and the linkers of the trispecific (TriTAC) format
B13: BCMA targeting trispecific protein 02E06 (other, not shown: large carriers; small tags and cut ends)
VHH: B1 VHH with T31D, G34M, I57F
notes: trispecific; also called 02E06 TriTAC
B14: BH2T TriTAC (protein, part only; not given: anti-albumin and anti-CD3 domains, part only)
chain, part: EVQLVESGGGLVQPGRSLTLSCAASTNIFSISPMGWYRQAPGKQRELVAAIHGFSTLYADSVKGRFTISRDNAKNSIYLQMNSLRPEDTALYYCNKVPWGDYHPRNVYWGQGTQVTVSSHHHHHH

biological target: T1, human BCMA protein; assay: affinity of purified protein to human BCMA protein, method not stated

| Kd [pM] | Binder |
| --- | --- |
| 6000 | B1 |
| 3000 | B2 |
| 5000 | B3 |
| 7000 | B4 |

biological target: T1, human BCMA protein; assay: affinity to human BCMA protein, method not stated

| Kd [pM] | Binder |
| --- | --- |
| 4180 | B5 |
| 6270 | B6 |
| 6530 | B7 |
| 6750 | B8 |
| 6730 | B9 |
| 6770 | B10 |
| 2860 | B11 |
| 5260 | B12 |
| 6310 | B13 |

biological target: T2, human BCMA on BCMA expressing cell lines; assay: cell-based or functional assay

| TDCC Jeko1 EC50 [pM] | TDCC MOLP-8 EC50 [pM] | TDCC OPM-2 EC50 [pM] | Binder |
| --- | --- | --- | --- |
| 320 | 200 | 160 | B14 |

biological target: T2, human BCMA on BCMA expressing cell lines; assay: cell-based or functional assay; remark: another data set of the same source

| TDCC Jeko1 EC50 [pM] | TDCC MOLP-8 EC50 [pM] | TDCC OPM-2 EC50 [pM] | Binder |
| --- | --- | --- | --- |
| 9 | 2.2 | 5.6 | B1 |
| 5.3 | 1.5 | 4.4 | B5 |
| 15 | 2.5 | 6.9 | B6 |
| 11 | 3.3 | 12 | B7 |
| 5.6 | 1.5 | 3.6 | B2 |
| 10 | 2.5 | 7.3 | B8 |
| 8.2 | 3.5 | 10 | B9 |
| 11 | 2.8 | 9.7 | B10 |
| 4 | 0.94 | 3.1 | B11 |
| 11 | 2.8 | 6.6 | B12 |
| 11 | 5.6 | 6.2 | B3 |
| 9.1 | 2.4 | 7.4 | B13 |
| 12 | 4 | 7.1 | B4 |

biological target: T2, human BCMA on BCMA expressing cell lines; assay: cell-based or functional assay; remark: another data set of the same source

| TDCC EC50 (EJM cells) [pM] | Binder |
| --- | --- |
| 0.702 | B5 |
| 1.91 | B6 |
| 1.37 | B7 |
| 1.72 | B8 |
| 1.36 | B9 |
| 1.65 | B10 |
| 0.341 | B11 |
| 1.08 | B12 |
| 1.57 | B13 |
